Biological target: T1, biotinylated ubiquitin (UniProt P0CG48 1-76, biotin)
T1 construct: ubiquitin (monoubiquitin); also called biotin-Ub; monoubiquitin; source: bought: Boston Biochem (Cat# UB-570)
Experiment: BLI; Octet Red384; biotinylated ubiquitin immobilised on streptavidin biosensors; analyte fourfold dilutions starting at 5 μM; 25 °C; 150 mM NaCl, 20 mM Tris 7.5, 1 mg/mL BSA, 0.01% Tween-20, 1 mM TCEP; association 180 s, dissociation 300 s
Conditions: both partners purified

binding result: binds
B1: UCHL5^WT (enzyme, UniProt Q9Y5K5 1-329, looked up)
chain: MTGNAGEWCLMESDPGVFTELIKGFGCRGAQVEEIWSLEPENFEKLKPVHGLIFLFKWQPGEEPAGSVVQDSRLDTIFFAKQVINNACATQAIVSVLLNCTHQDVHLGETLSEFKEFSQSFDAAMKGLALSNSDVIRQVHNSFARQQMFEFDTKTSAKEEDAFHFVSYVPVNGRLYELDGLREGPIDLGACNQDDWISAVRPVIEKRIQKYSEGEIRFNLMAIVSDRKMIYEQKIAELQRQLAEEEPMDTDQGNSMLSAIQSEVAKNQMLIEEEVQKLKRYKIENIRRKHNYLPFIMELLKTLAEHQQLIPLVEKAKEKQNAKKAQETK
notes: ubiquitin C-terminal hydrolase L5 (UCHL5), full-length wild type; also called UCH37; source: E. coli BL21-Gold(DE3), purified (Ni-NTA, SEC)
